B1: PLPs: ultra-low crosslinked pNIPAm-AAc microgels conjugated to fibrin-specific sdFv H6 (conjugate)
VH: QVQLLESGGGLVQPGGSLRLSCAASGDRFTHNDMGWVRQAPGKGLEWVSTIPTTDGSTYYADSVKGRFTISRDNSKSTLYLQMNSLRAEDTAVYYCATGYMWKAPAYVKYWGQGTLVTVSSAAAEQKLISEEDLNSAAHYTDIG
B2: H6: fibrin-specific human sdFv clone from phage biopanning, SEQ ID NO: 1 (protein)
VHH: QVQLLESGGGLVQPGGSLRLSCAASGDRFTHNDMGWVRQAPGKGLEWVSTIPTTDGSTYYADSVKGRFTISRDNSKSTLYLQMNSLRAEDTAVYYCATGYMWKAPAYVKYWGQGTLVTVSSAAAEQKLISEEDLNSAAHYTDIG

Columns and labels:
[1] = tested on: platelet-poor plasma; experiment: Gross clot contraction of platelet-poor plasma clots; type: biochemical
Description: Clot collapse was characterized at the macroscopic level by performing standard gross clot contraction experiments routinely utilized by platelet biologists, Thomas, et al., BMC Cell Biology, 8:46 (2007); Suzuki-Inoue, et al., Thrombosis Research, 120:251-258 (2007). It was expected that particle deformability would play a large role in the ability of fibrin-binding microgels to induce gross clot deformation and architectural changes. Clots were created through the addition of 1 U/mL thrombin (final concentration) to platelet-poor plasma containing microgels of varying crosslinking. Clot collapse was observed within 48 hours in the presence of PLPs but not under any other conditions tested (FIG. 4B). […] Because natural platelet mediated contraction decreases clot degradation rates, we analyzed clot degradation rates in the absence or presence of PLPs. […] Because clot contraction was not observed in the presence of non-fibrin binding ULC microgels or in the presence of fibrin-binding BIS crosslinked microgels or hard PS particles, we conclude that, while enhancement of clotting in vitro only requires high affinity and multivalency for fibrin, particle deformability is critical to the ability of fibrin-binding particles to induce clot collapse. To fully recapitulate the hemostatic functions of platelets (enhancement of dotting and clot contraction following hemostasis) it appears that both high fibrin affinity and high particle deformability are required.

[2] = tested on: femoral vein injury; experiment: Rat femoral vessel traumatic injury model; type: in vivo
Description: To test the efficacy of PLPs in hemostasis, a well-established rat femoral vessel traumatic injury model was used^13-15. This model results in an easily visualized, continuous stream of blood flowing from the injury site. All protocols were approved by the Georgia Institute of Technology IACUC. Adult Sprague-Dawley male rats (200-250 g) were anesthetized with 5% isoflurane. Following anesthesia, an incision was made on the right hindlimb to expose the femoral vessels. A portion of the femoral vein was isolated from the surrounding connective tissue by placing a small piece of foil between the vessel and the underlying tissue. Following isolation of the vessel, the cavity will be irrigated with 0.9% irrigation fluid at 37° C. Animals were then administered 500 μL of saline (vehicle), purified human factor VIIa ([…], 100 μg/kg the current standard of care, purchased from Innovative Research), PLPs (20 mg/mL) or S11-ULC microgels (20 mg/mL) via tail vein injection using a 24 gauge catheter. Six (6) animals were tested per condition. Following a 5 minute circulation time, injury was induced to the right femoral vein by piercing the vein with a 22 gauge needle. A gauze was lightly placed below the injury site to collect blood, allowing for better visualization of the injury site as well as measurement of total blood loss. Gauze were changed every ten seconds for the first 30 seconds following injury and then every 30 s until bleeding ceased. Bleeding time was defined as the time required for bleeding to cease for a minimum of 10 s. Following cessation of bleeding, animals were euthanized with carbon dioxide. Following cessation of bleeding, animals were euthanized and organs separated, fixed with 10% formalin, paraffin embedded and 5 μm sections were produced using a Microm […] Microtome (Thermo Scientific). Co-localization of PLPs were characterized through immunofluorescence staining for the MYC-tag encoded on the sdFvs and through Martius Scarlet Blue (MSB) staining for fibrin in adjacent serial sections. For MYC-tag staining, samples were counter stained with Hoescht (Invitrogen) to visualize nuclei. All statistical analyses for bleeding time studies were performed with Prism software program (GraphPad, San Diego Calif.). Bleeding and blood weight data were statistically analyzed using repeated measures analysis of variance using the Tukey test at a 95% confidence interval.

[3] = tested on: traumatic injury; experiment: Hemostasis in rodents following traumatic injury; type: in vivo; conditions: 100 mg/kg intravenously
[4] = tested on: fibrin E Regions; experiment: ELISA against adsorbed fibrin E Regions; type: binding; conditions: E Region dilutions
Description: This was determined through ELISAs against plates coated with adsorbed fibrin D-Dimers or E Regions.
ELISA set-up and analysis was identical to that performed for the plasma-binding ELISA, the main exception being a substitution of human plasma dilutions for D-Dimer or E Region dilutions adsorbed to the 96-well plates. Both D-Dimer and […]

| Molecule | overall degree of clot contraction ([1]; platelet-poor plasma with particles versus native platelet-rich plasma) | time to clot collapse ([1]; platelet-poor plasma, 1 U/mL thrombin) [h] | rate of induced clot collapse ([1]; versus native platelet-containing clots) | total blood loss ([2]; compared to S11-ULC microgels, p<0.05) | fibrin staining in vessels ([2]; postmortem) | localization at wound (MYC-tag staining, MSB fibrin staining) ([2]; postmortem wound tissue) | blood loss over time (bleeding dynamics) ([2]; rat) | bleeding time compared to vehicle only ([2]; rat, tail vein injection) | Bleeding time ([2]; rat, tail vein injection, 5 minute circulation time) [s] | augmentation of hemostasis [3] | binding to E Region [4] |
| --- | --- | --- | --- | --- | --- | --- | --- | --- | --- | --- | --- |
| B1 | No significant differences | ≤ 48 | significantly less | significantly less | higher levels of fibrin staining | co-localization of PLPs with fibrin clots | slowest blood loss over time | significantly decreased | 117 ± 16 | effective to augment hemostasis |  |
| B2 |  |  |  |  |  |  |  |  |  |  | negligible binding |
